Measured values as given in patent publication US20240307370A1, “SIGMA RECEPTOR LIGANDS FOR TREATING SARS-COV-2 INFECTION” (University of Florida Research Foundation, Incorporated, priority 2021, published 2024).

Assays:
SARS-CoV-2 [1] = type: cell-based; settings: 400 μg/ml, H23-hACE2, MOI 0.01, 48 hpi
SARS-CoV-2 [2] = type: cell-based; settings: 400 μg/ml, 48 hours after infection, vs DMSO alone

B1: lactoferrin: host-iron sequestration protein; lactoferrin from human milk, MilliporeSigma (protein, UniProt P02788 20-710, looked up)
Lactotransferrin: GRRRSVQWCAVSQPEATKCFQWQRNMRKVRGPPVSCIKRDSPIQCIQAIAENRADAVTLDGGFIYEAGLAPYKLRPVAAEVYGTERQPRTHYYAVAVVKKGGSFQLNELQGLKSCHTGLRRTAGWNVPIGTLRPFLNWTGPPEPIEAAVARFFSASCVPGADKGQFPNLCRLCAGTGENKCAFSSQEPYFSYSGAFKCLRDGAGDVAFIRESTVFEDLSDEAERDEYELLCPDNTRKPVDKFKDCHLARVPSHAVVARSVNGKEDAIWNLLRQAQEKFGKDKSPKFQLFGSPSGQKDLLFKDSAIGFSRVPPRIDSGLYLGSGYFTAIQNLRKSEEEVAARRARVVWCAVGEQELRKCNQWSGLSEGSVTCSSASTTEDCIALVLKGEADAMSLDGGYVYTAGKCGLVPVLAENYKSQQSSDPDPNCVDRPVEGYLAVAVVRRSDTSLTWNSVKGKKSCHTAVDRTAGWNIPMGLLFNQTGSCKFDEYFSQSCAPGSDPRSNLCALCIGDEQGENKCVPNSNERYYGYTGAFRCLAENAGDVAFVKDVTVLQNTDGNNNEAWAKDLKLADFALLCLDGKRKPVTEARSCHLAMAPNHAVVSRMDKVERLKQVLLHQQAKFGRNGSDCPDKFCLFQSETKNLLFNDNTECLARLHGKTTYEKYLGPQYVAGITNLKKCSTSPLLEACEFLRK
Which “effect on SARS-CoV-2 concentration (TCID50), words” value (SARS-CoV-2 [1]) does the source give for B1 here?
Its value is “ineffective”.

And the “decrease of N-protein RNA copies (qPCR)” value (SARS-CoV-2 [2])?
Its value is 28.0%.
